Experimental data from US11110158B2, “Prostate-associated antigens and vaccine-based immunotherapy regimens” (Pfizer Inc., priority 2012, dated 2021).
Like-named read-outs stand apart in the source and are kept apart here.

Tests used:
293 cells = assay: Expression of PSMA constructs in transfected 293 cells by FACS; type: cell-based; conditions: 293 cells transfected with PJV7563 vector, stained with mouse anti-PSMA antibody three days later; cell surface expression
Method: The expression of the PSMA cytosolic, secreted, and modified antigens was determined by FACS. Mammalian 293 cells were transfected with the PJV7563 PMED vectors encoding the various immunogenic PSMA polypeptides. Three days later, the 293 cells were stained with mouse anti-PSMA antibody, followed with a fluorescent conjugated (FITC) rat anti-mouse secondary antibody.

[1] = design: species or system Indian Rhesus macaques; conditions: rhesus monkey, in vivo, 10 mg/kg
Method: Three animals per treatment group were injected with the anti-CTLA-4 antibody Tremelimumab at 10 mg/kg, either with a single intravenous injection into the saphenous vein or multiple 0.2 ml intradermal bilateral injections in the upper thigh in proximity to the inguinal draining lymph nodes. Blood samples were collected at 0, 1, 2, 4, 8, 12, 24, and 48 hrs post injection into 2.0 ml vaccutainer tubes containing lithium heparin as the anticoagulant. Plasma was collected from the supernatant in the vaccutainer tubes after centrifugation at 1500×g at 4° C. for 10 min. The levels of Tremelimumab in the plasma was measured by a quantitative ELISA assay according to the procedure provided below.
Tremelimumab Quantitative ELISA Assay Procedure. The 384-well high bind assay plates (VWR-Greiner Bio-One Cat #82051-264) were coated with 25 μl/well of CD-152 (CTLA-4; Ancell Immunology Research Products Cat #501-020) at 1.0 μg/ml in 100 mM carbonate-bicarbonate coating buffer and incubated overnight at 4° C. […] The colorimetric reaction was stopped by addition of 12.5 μL/well 1N Sulfuric acid and the absorbance then read at 450 nm. The amount of Tremelimumab in each sample was quantified using the standard curve with 0.27 to 67 ng/mL used as the quantitative range.

Substance | Average mean fluorescent intensity (293 cells) | AUC0-24 [1] [µg·h/mL] | AUC0-24 ([1]; iv) [µg·h/mL]
PSMA modified: membrane-bound polypeptide of amino acids 15-750 of human PSMA, SEQ ID NO: 9; tested as DNA construct | 12270 | – | –
Tremelimumab: fully human IgG2 anti-CTLA-4 monoclonal antibody, CAS 745013-59-6, SEQ ID NOs:42 and 43 | – | 4900 | 7200
